Reference: patent publication US5910570

Experiments:
[1] = target: synthetic acceptor peptide Pro-Pro-Ala-D-Ser-Thr-D-Ser-Ala-Pro-Gly (PPAdSTdSAPG)
[2] = target: T1, synthetic acceptor peptide Arg-Thr-Pro-Pro-Pro (RTPPP)
T1 sequence (peptide): RTPPP

[3] = target: T2, synthetic acceptor peptide Arg-Ser-Pro-Pro-Pro (RSPPP)
T2 sequence (peptide): RSPPP

[4] = target: T3, bovine rhodanese, reduced and carboxymethylated (bovine) (UniProt P00586)
T3 sequence (chain, reduced and carboxymethylated): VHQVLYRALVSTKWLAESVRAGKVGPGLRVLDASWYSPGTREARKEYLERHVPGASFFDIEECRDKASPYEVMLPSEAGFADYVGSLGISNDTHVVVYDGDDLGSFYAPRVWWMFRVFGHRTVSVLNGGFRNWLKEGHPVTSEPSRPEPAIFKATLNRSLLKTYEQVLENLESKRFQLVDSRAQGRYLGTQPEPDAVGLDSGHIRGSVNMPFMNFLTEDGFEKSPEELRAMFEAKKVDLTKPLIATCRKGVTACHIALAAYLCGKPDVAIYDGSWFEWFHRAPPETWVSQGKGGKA

[5] = target: T4, subtilisin, reduced and carboxymethylated (Bacillus amyloliquefaciens (Bacillus velezensis)) (UniProt P00782)
T4 sequence (chain, reduced and carboxymethylated): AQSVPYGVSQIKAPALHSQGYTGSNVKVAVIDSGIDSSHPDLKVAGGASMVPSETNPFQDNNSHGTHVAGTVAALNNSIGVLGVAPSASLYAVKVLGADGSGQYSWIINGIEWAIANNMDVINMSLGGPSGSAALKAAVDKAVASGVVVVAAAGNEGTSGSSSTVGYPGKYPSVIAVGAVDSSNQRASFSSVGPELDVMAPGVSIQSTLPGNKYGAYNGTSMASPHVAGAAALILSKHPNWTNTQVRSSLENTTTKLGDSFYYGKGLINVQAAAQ

[6] = target: T5, bovine rhodanese, native (bovine) (UniProt P00586)
T5 sequence: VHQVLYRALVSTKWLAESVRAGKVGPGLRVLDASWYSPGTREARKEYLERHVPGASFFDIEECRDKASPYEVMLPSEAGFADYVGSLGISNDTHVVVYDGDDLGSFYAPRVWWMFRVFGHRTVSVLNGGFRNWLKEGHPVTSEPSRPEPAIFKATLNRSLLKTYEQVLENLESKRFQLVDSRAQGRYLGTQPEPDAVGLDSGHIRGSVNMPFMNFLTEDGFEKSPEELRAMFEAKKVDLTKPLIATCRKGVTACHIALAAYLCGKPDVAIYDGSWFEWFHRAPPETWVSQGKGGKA

[7] = target: bovine cytochrome C, reduced and carboxymethylated (bovine) (UniProt P62894)
[8] = target: bovine cytochrome C, native (bovine) (UniProt P62894)
[9] = target: T6, subtilisin, native (Bacillus amyloliquefaciens (Bacillus velezensis)) (UniProt P00782)
T6 sequence: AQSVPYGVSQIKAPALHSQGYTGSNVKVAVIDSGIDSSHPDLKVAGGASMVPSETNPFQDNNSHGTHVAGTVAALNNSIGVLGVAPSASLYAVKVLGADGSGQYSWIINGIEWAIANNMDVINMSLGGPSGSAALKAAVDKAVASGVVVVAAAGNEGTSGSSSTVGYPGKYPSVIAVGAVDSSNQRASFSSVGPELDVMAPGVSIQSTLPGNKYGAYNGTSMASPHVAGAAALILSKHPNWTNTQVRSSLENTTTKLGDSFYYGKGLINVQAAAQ

[10] = target: synthetic acceptor peptide Pro-Pro-Ala-D-Ser-Thr-D-Ser-Ala-Pro-Gly (PPAdSTdSAPG); remark: listed apart in the source
[11] = target: T2, synthetic acceptor peptide Arg-Ser-Pro-Pro-Pro (RSPPP); remark: listed apart in the source

Chain of myelin basic protein (P02687 whole entry): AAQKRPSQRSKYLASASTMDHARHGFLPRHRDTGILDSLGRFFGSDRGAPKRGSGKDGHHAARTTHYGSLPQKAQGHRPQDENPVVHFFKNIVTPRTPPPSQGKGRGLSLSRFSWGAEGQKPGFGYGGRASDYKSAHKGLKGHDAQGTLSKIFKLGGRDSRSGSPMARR

Vmax/Km [1]: 1.2 M⁻¹ s⁻¹
Km [2]: 3.3 mM
Vmax/Km [2]: 183 M⁻¹ s⁻¹
Vmax/Km [3]: 0.4 M⁻¹ s⁻¹
Product formed [4]: 3.3 nmol/min/mg
Product formed [5]: 0.6 nmol/min/mg
Product formed [6]: < 0.1 nmol/min/mg
Product formed [7]: < 0.1 nmol/min/mg
Product formed [8]: < 0.1 nmol/min/mg
Product formed [9]: < 0.1 nmol/min/mg
Product formed (myelin basic protein): 22.2 nmol/min/mg
Product formed [10]: 2 nmol/min/mg
Product formed [11]: 0.67 nmol/min/mg
B1: UDP-GalNAc:polypeptide N-acetylgalactosaminyltransferase purified from bovine colostrum (enzyme)
chain: GLPAGDVLEPVQKPHEGPGEMGKPVVIPKEDQEKMKEMFKINQFNLMASEMIALNRSLPDVRLEGCKTKVYPDNLPTTSVVIVFHNEAWSTLLRTVHSVINRSPRHMLEEIVLVDDASERDFLKRPLESYVKKLKVPVHVIRMEQRSGLIRARLKGAAVSKGQVITFLDAHCECTVGWLEPLLARIKHDRKTVVCPIIDVISDDTFEYMAGSDMTYGGFNWKLNFRWYPVPQREMDRRKGDRTLPVRTPTMAGGLFSIDRDYFQEIGTYDAGMDIWGGENLEISFRIWQCGGTLEIVTCSHVGHVFRKATPYTFPGGTGQIINKNNRRLAEVWMDEFKNFFYIISPGVTKVDYGDISSRLGLRHKLQCRPFSWYLENIYPDSQIPRHYFSLGEIRNVETNQCLDNMARKENEKVGIFNCHGMGGNQVFSYTANKEIRTDDLCLDVSKLNGPVTMLKCHHLKGNQLWEYDPVKLTLQHVNSNQCLDKATDEDSQVPSIRDCSGSRSQQWLLRNVTLPEIF
modifications: native glycoprotein (peptide N-glycosidase F shifts it by approximately 6 kDa)
